Laboratory results: patent US20260241035A1, “FUNCTIONAL NUCLEIC ACID MOLECULE AND METHOD” (THE UNIVERSITY COURT OF THE UNIVERSITY OF EDINBURGH, priority 2022, published 2026)

B1: CSE194: clustered SOX dimer motif enhancer, SEQ ID NO: 37 (nucleic acid)
DNA: ATCTCATATATGTGTATATGTATTTATGATTTACATATATACAGACGTATCACACACTCCGAATAGAATACAGATTTCCTTCAATGACAGCAACAACTCAATGACCCGCCCACTAGCATGGCTAAAATACTAAACCACTAGATAGCTTTATGTGAACTTGAGCTTGATTGTTTCTTAGCTCTGCTTCAGAACCTCATGATCATGTGCATGCAATTTCTACAGAAGCGGAAACGTAGATGCTGTGGGTCAGTGAGCATTCCTTTCCAGGGTGCTTCTGAGATGAAGCCCCACGATTAACACAGGGCCCTTAATGATGGGCGGGGGACTAAGCATTCCAAGATTGGCCTGGATTCCTGCCAGAAGGGAGAGAAAGGGGTCTTTGTATGTGGACATCTGAAGGGCGGGCATAAACATGTTAGTTGATACTTAACACCCAAAACCAGTGCCAAAACCGTTAGCTCCCCTCAATAGCCTACTCTGGTTTCAACTGTCCGCGACAATGGAGCAGCCACCTCAATATACAAAACTTGCTCTTTAAACATCCTCAGAGGAATTCCCAAAATAGCAGCTGTTAGAAGCAAACAGACTCTAATTCATTGACATATGCAGACCTTTTAATGTTTTTCTGGTGACGTTTACATTTTTTTTTGTACCTACGCCATCTATGCATTTTTAATAATTACCTTGTAGATTACGTATGCAATCCCTCCAGGCACTTGAAGAAGGAGCCCCGGGATTCATCATCAGATGAAATTGTTAGTTTTTACGGCAAGAGGCCCAGCTAATTTATGCGGGGAATTTTTCAGACGTTTTTCCTCTGGGCTCCCTTCCCTGCTGTCCTCGCGCCTTTCTTCCTCAGTACATTAAGAGATTCTGATGTGCCTGCAGCA
B2: ID2816: enhancer fragment, SEQ ID NO: 31 (nucleic acid)
DNA: TTCCTGCATCTGGCCCTCTTTGAGAGCCCCTTGTGTGCCAATGACAAACCCTTCTTTATTTAAGCTCCTCTGAAGTGCCTTCCTGGTCTTGGCAGCTGGACAGGGCCCTGAATAAGACAGCGAGCCTCAATGGCAGGCTACCCCAGGGCTGGGTGACGTA
B3: ID0109: enhancer fragment, SEQ ID NO: 6 (nucleic acid)
DNA: GAAATTGGATCCTGAGGAGAATGTCACCACCTCTTTGACAATAACTAGCTTTCAGAGCTGAACACAGTGAATCTGGATACTGTGTATATGTTTAAATGAGTTAGGAAATGACATCACATTATTTATTTCTTCTTTTGTGACTTAGTAAATTGACTTGGCC
B4: ID3499: enhancer fragment, SEQ ID NO: 36 (nucleic acid)
DNA: AAGAATGAACTGGGCCCAGCTGGGCATTTGCATCAAAGTGCCTCACCAGAGTTCCCAGCTGCTCTGGCAGAGTGCCCAGGCTTGCCCCAGAGCCCAAACAGAATGCTCTTTGAGATGCCTCTGGTTTTCA
modifications: listed as DNA, chemistry not given here
B5: CSE208: clustered SOX dimer motif enhancer, SEQ ID NO: 38 (nucleic acid)
DNA: AGATAAAGCCAGAAATAAAAGGGAAAGAAACAGTTATATGATTTTGGTGGGAATTTGCAGAAATACAGGCTGAAGCTGAAGTCTTCCATCAGGTGAGGTTTTTTCCATTGATCTCATCTCTCGGGCTCAGCTCTTTTATCTCCAGCGCATTTTGGATGTGGCTTCTCTTTCCACCTGCTGGGCCTTTAGATAGAGTACTTCCTTTTGTTTCAAGGTAGCATTTAACTGAGTCTGGAAAAACCATCATTAAGGGAAAATAAAGCTGAAAGATGAATTGAAAACTATGTAAAAGGGCCCTTTCAGGCTGCCGGAGAGATTGCCTTTCCAGCCTAATGAGCCTGTGCTGCCTCTGATTCAGATGGTGCAAGGACAGGAGAAAAGAATGGAGTTTTGTGCACTGCGATTTTCCAAAGCACATAATGCTTAGTCATTTGGGGTGTTAGGAAAGAGAGAAAGTCGGAGCGGAGTGTGTGGTGAAGTGAGAGAAAGAAAGAAGGCTGAATTTTCGTTAAGCTGCTCAAATGCCTGCTTTAACAAAAGTCTGCCAGGGCTAGAGGTGATTAGCCATCAGTGCTGCTGCTGTTTTTGCTGTCG
B6: ID2082: enhancer fragment, SEQ ID NO: 28 (nucleic acid)
DNA: ACAGAAGCCGTTGCTGCAGTAACCACTGCCGCAAGAGCAACTTTGGCAGCAGGCAGGTGCCAGGCAGCAAGCTGAGAGAACACTGACAGATTCAAAGTGTCTTCAGATACAAGGCTTTGTTTGTGCACAGTGAACAAAGGGCATATTGGGAAGGCCTCC
B7: ID0403-2: enhancer fragment, SEQ ID NO: 33 (nucleic acid)
DNA: ATGTTAAACAGTGAAATCATCAGCAAAAAGCACAAAACTGCAGAAAACATGGCACTAAATAGAACACAAAAAGGACACTTGTTTACAGTATGAGAGCAGAAACAAGGAAACAGTGTTTCCTTGTTCAGCCACAGCTGGGACCTTGTGTGT
B8: CSE222: clustered SOX dimer motif enhancer, SEQ ID NO: 39 (nucleic acid)
DNA: CTCTTTGGGTCTAGGTATCATTTTGGGATCACATCATGATAACTCTATGTGTGTGTGCTGGGAGGGCAAAGTTGCAAAGCAATTACTCAGCAATGCTGAAGAAAGAAGCAATTACTGGAACACATTTTAGCCCCGCTTGTCAGAGTGACTTTCACTGGGGCACAAGGGAAGCATTCACTTAGGCAGTATCCCTTTCAGAGGCTTAATTTAGTTTTTTCTTCCCTTTAATTGTGTGATTCCAGTATTTTAGCTACAATCCCTAGGCTGTAGGAACCTTTAAACACTTCTTTTTATAAAAGAAATGCATGGGCTTTTGAAGAATAAACAGGGGGCTGCATAATTTATAGGAAAATGGCACCATGGACTTTTCCTTCACAAAGAACATTGGGGTTACATTGGAACAAGCCAAATATGTTTTTAATGAATAGTCAGTAATCAGCAGCAGCTACAGTAAGTGCTTGAAATTTTTCTTTTATGTGCTATGAGTCCACAAACTAAGCATCTGATTCTGATTGCAGCCATGA
B9: ID1667: enhancer fragment, SEQ ID NO: 30 (nucleic acid)
DNA: ACCCTTTGCAGAGAGGAAAGAGAAAGGAGGTCTCCTGTTGGGGAGATCTGCTTTAGAGGTTAGGAAGAATGGTGGAGTTGTAAGACATTGGAATCACTGTCTAGGAAGGACAGTGGCCTTTTATCCAGGGCTATTTAAAAACAGACAGAGCTTCATCTAT
B10: ID4431: enhancer fragment, SEQ ID NO: 35 (nucleic acid)
DNA: AAATGGTGATTATCATCATTTGTTCAGGGACATTAGCATGAAGGCCGAATGTTCTGGCACAAAGACACGTCTGTGGGACAGGCAC
modifications: listed as DNA, chemistry not given here
B11: ID4035: enhancer fragment, SEQ ID NO: 29 (nucleic acid)
DNA: CCCAGACTGCCATCTCCACGGCCCCCACACCAGCACACAGATGCCTCATTCACGTGGTGCTCCCAGGGCCTGGCACCAGTTCTGAGGCTTAAAATAGGCACACAACGGGCCTTTGTCGGATAGAGGAAGGAAGGAAGGAGCGTTTCAGACAAAGGAGACA
B12: ID0403-1: enhancer fragment, SEQ ID NO: 32 (nucleic acid)
DNA: TGCCTCTCTTCCATTGGCATTGGAGTGGCTATAGGCCTTTGGAGGACCTGGCAAAGGGGAAGTTGATTTAGGGGTTCATTGAATTGAGGGGAAGTATGTAAGTGGTTTGCAGTCACTTCCTTGTGTGGTACTCTTGTATAGTAATGATTTCCTGGAATA

test system: GSC7 cells; experiment: Nano-Glo Dual-Luciferase Reporter (Nanoglo DLR) assay of enhancer activity, fold change to mCMV; type: cell-based, human; conditions: expression fold change of the individual enhancer compared to mCMV
Excerpt: We chose an arrayed library format, with 160 bp enhancer fragments individually cloned into separate plasmids and arrayed in 96 well plates. These 160 bp were synthesized as a single pool of oligos, then randomly cloned into the plasmid and isolated. 20 bp×2 were needed for PCR amplification of the pool and so a library of 200 bp fragments was synthesized (Twist Biosciences). To meet our oligo synthesis strategy, ChIP-seq peaks expressed by GSCs were merged into a single oligo. This oligonucleotide pool was PCR-amplified (using limited cycles to reduce bias and ‘jackpot’ products meaning products which are easier to amplify will overtake the oligonucleotide pool) and cloned into the expression vector by an efficient Golden Gate reaction. 4579 individual plasmids were then randomly picked, isolated and plated as an arrayed plasmid DNA library on 96 well plates (×48). The bacterial colony picking and production of plasmid minipreps were supported by the Edinburgh Genome Foundry (S. Rosser). This library was then screened using the optimised Nanoglo DLR assay (Nano-Glo Dual-Luciferase Reporter Assay, Promega) in 384 well format. Each plate was transiently transfected together with PGK-FFLuc in a 1:10 ratio into GSC7 cells. 2 days later a Nanoglo DLR assay was performed and assayed on a plate reader.
Cells were seeded in 384 well plates using a multidrop and transfected the following day using the CyBio Felix. Two days later the experiment was terminated with a Nanoglo DLR assay and all hits with a fold change to mCMV greater than 10 were Sanger sequenced and mapped back to the genome.
Cells were seeded at the required density. The following day the transfection was carried out. For this the Plus reagent and Lipofectamine LTX (Life Technologies, 15338030) were each diluted in half the volume of Opti-MEM I Reduced-Serum Medium (further referred to as Optimem) (Life Technologies, 31985062). Following this step, the Plus reagent/Optimem premix was added to all DNA samples followed by the Lipofectamine LTX/Optimem premix. The transfection mix was incubated for 5 min at room temperature and then carefully dropped on the cells. Generally, no media change was carried out. Cells were analysed two days following transfection.
This assay consists of two steps. The transfection was carried out using a normalisation plasmid PGK-Firefly-Luciferase (Promega, E5011) that was transfected in a 1/10 ratio with the plasmid of interest. First, the Firefly Luciferase activity is measured which allows to normalise to transfection efficiency. In a second step, the activity of Nanoluc is determined which is the readout of the plasmid of interest. Cells were washed 3× with PBS and 20 μl was left in the 96 well plate after the final wash (25 μl in 384 well). Oneglo buffer was added and the plate was shaken for 5 min at 480 rpm to allow cell lysis. 20 μl cell lysate in 96 well format or 25 μl cell lysate in 384 well format was then transferred into the corresponding opaque white plate and luminescence was measured at for 0.1 s per well using the Ensight Multimode Plate Reader. For the following Nanoluc reaction in a 96 well format 2 μl cell lysate was transferred into an opaque white plate containing 40 μl PBS, and 20 μl Stopglo buffer, supplemented with substrate, was added to each well. In a 384 well format 20 μl Stopglo buffer containing substrate were added on top of the undiluted cell lysate. The plate was shaken again for 5 min at 480 rpm to quench the firefly luciferase reaction and ensure good mixing. Nanoluc activity was measured for 0.1 s per well, again using Ensight Multimode Plate Reader.
Data obtained by the Nanoluc reaction was normalised to Firefly reaction to account for well-to-well variability of transfection efficiency. Normalised data were used to calculate the fold change to the empty vector control mCMV.

Going from B1 to B2, the “Fold change (Median)” value rises from 14.54 fold to 25.1 fold.

Going from B3 to B4, the “Fold change (Median)” value falls from 116.4 fold to 20.7 fold.

First: B5
Second: B6
The “Fold change (Median)” value of the first is higher: 45.5 fold for the first, 26.4 fold for the second.

Going from B7 to B8, the “Fold change (Median)” value rises from 24.9 fold to 145.9 fold.

First: B9
Second: B10
The “Fold change (Median)” value of the first is higher: 25.2 fold for the first, 21.2 fold for the second.

Going from B11 to B12, the “Fold change (Median)” value falls from 26.2 fold to 24.9 fold.
